Four molecules from patent publication US20230416347A1 can be followed below.

Substitutions are numbered along the chain they refer to.

The target of experiment [1] is rVλ6Wil fibrils. Nature of the experiment: EuLISA on rVλ6Wil fibrils (FIG. 5A).
The target of experiment [2] is rVλ6Wil fibrils. Nature of the experiment: EuLISA on rVλ6Wil fibrils (FIG. 5B).

B1: VH10/VL4 (antibody, V domains shown)
VH: QVQLQESGPGLVKPSETLSLTCTVSGFSLSSYGVSWIRQPPGKGLEWLGVIWGDGSTNYHPNLMSRLSISKDTSKSQVLLKLSSVTAADTAVYYCVTLDYWGQGTSVTVSS
VL: DVVMTQSPLSLPVTLGQPASISCRSSQSLVHRNGNTYLHWFQQRPGQSPRLLIYKVSNRFSGVPDRFSGSGSGTDFTLKISRVEAEDVGVYFCFQTTYVPNTFGGGTKLEIK
In turn, B1 gave an EC50 in experiment [1] of 17 nM.

B2: VH6/VL3 (antibody, V domains shown)
VH: B1 VH with I37V, S76N, V78F, L79S, V92T
VL: B1 VL with F41Y, Q42L, V90L
Consider B2, for which the EC50 in experiment [1] and in experiment [2] was 95 nM throughout.

B3: VH7/VL4 (antibody, V domains shown)
VH: B1 VH with L48I, L67V, S68T, S76N
VL: B1 VL
The molecule B3 displayed an EC50 in experiment [1] of 75 nM.

B4: VH8/VL4 (antibody, V domains shown)
VH: B1 VH with L48I, L67V, S68T, V78F, L79S
VL: B1 VL
In the case of B4, the EC50 in experiment [1] worked out at 16 nM.
